Target: T1, biotinylated CD59 (Homo sapiens, UniProt P13987)
T1 construct: Recombinant soluble human CD59 with an additional C-terminal cysteine residue
T1 sequence (P13987 26-102 limits assumed): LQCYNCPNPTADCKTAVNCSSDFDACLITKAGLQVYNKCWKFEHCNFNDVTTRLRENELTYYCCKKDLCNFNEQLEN
Experiment: mRNA-display cyclic peptide screen against CD59-biotin, NGS abundance after 6th selection round
Settings: for Counts (raw counts for peptide sequence), Seq I: NGS sample Seq I; for Counts (raw counts for peptide sequence), Seq I / Counts (raw counts for peptide sequence), Seq II / Counts Seq I / Counts Seq II: sheet R6 (6th selection round); for Counts (raw counts for peptide sequence), Seq II: NGS sample Seq II; for Percentage of the pool, averaged across the two sequencing samples: average of Seq I and Seq II; for Percentage of the pool, averaged across the two sequencing samples / Percentage of the pool, Seq I / Percentage of the pool, Seq II / Percentage Seq I / Percentage Seq II / Percentage Average: sheet R6; for Percentage of the pool, Seq I: counts normalised by total counts of NGS sample Seq I; for Percentage of the pool, Seq II: counts normalised by total counts of NGS sample Seq II; for Percentage Seq I: counts normalised by total counts of sample Seq I; for Percentage Seq I / Percentage Seq II: percentage of the pool; for Percentage Seq II: counts normalised by total counts of sample Seq II; for Percentage Average: percentage of the pool averaged across the two sequencing samples; for Counts Seq I / Counts Seq II: raw NGS counts of peptide sequence; for Counts Seq I: sequencing sample Seq I; for Counts Seq II: sequencing sample Seq II
Excerpt: To discover novel non‐protein CD59 ligands, we screened a library of 10^12 cyclic peptides against CD59 using mRNA‐display (Figure 2a).^[ [23], [24], [25], [26], [27], [28], [29] ^] Briefly, an mRNA library was designed in which the start codon was reprogrammed from Met to N‐chloroacetyl‐D‐Tyr (ClAc‐D‐Tyr), followed by 10–12 randomly encoded natural amino acids, a Cys residue, a (GlySer)3 linker, and a stop codon. […] The total library diversity was 1.51 × 10^13 molecules, comprising 5.02 × 10^12 molecules of each macrocycle size, covering a subset of the maximum theoretical diversity of this library design. Following in vitro translation, ClAc‐D‐Tyr spontaneously reacts with either the C‐terminal Cys or a Cys in the random region, yielding macrocyclic thioether peptides. Hits from the library were identified through iterative enrichment and amplification against biotinylated CD59, then immobilized on streptavidin beads. Fifteen hit sequences (CP‐01 to CP‐15), enriched with abundance >1% relative to the total pool of recovered binders after the 6th round of selection, were synthesized by solid phase peptide synthesis (SPPS), without the (Gly‐Ser)3 linker.
Figure 2 Discovery of macrocyclic peptide ligands with nanomolar CD59 affinity using mRNA display. a) The selection process. PCR = polymerase chain reaction, SPPS = solid phase peptide synthesis. b) Table showing details of the peptides with nanomolar affinity for CD59 as well as the binding affinity of the lead inhibitor of CD59, rILYd4. K D values are presented as the average of three technical replicates ± SEM. Structures of all peptides and SPR sensograms are presented in Figures S1 and S2. *indicates the presented sequences are the variable regions of these cyclic peptides; each is flanked by an N‐terminal Ac‐D‐Tyr cyclized to a C‐terminal Cys. R6 abundance (%) is defined as (the given number of NGS reads for a given sequence/the total number of reads of unique sequences observed in NGS)*100 following the 6th selection round. c) Representative sensogram of the interaction between CP‐06 with immobilized CD59 by SPR analysis. Inset showing the equilibrium binding curve of CP‐06 to CD‐59. Below in the box are the association and dissociation rate constants of CP‐06. Concentrations are plotted in descending order from 800‐3.1 nM in line with their position on the legend. […] (nM)'; the box with Kon/Koff has no label of its own / ILYd4: the label may be cut off at the left edge (possibly 'rILYd4') / CP-02, KD: 15.3 ± 0.2, small print, 3 or 8 uncertain / CP-03, KD: 23.4 ± 0.7, small print / CP-06, KD: 11.3 ± 0.0, small print, 3 or 8 uncertain / CP-13, KD: 10.8 ± 0.7, small print, 8 or 6 uncertain / ILYd4, KD: 48.3 ± 1.1, small print, 8 and 3 uncertain
The mRNA-display cyclic peptide screen was performed against CD59-biotin by T.E.M: DNA templates for transcription were generated by PCR in a similar manner to that previously described.^2 RNA oligonucleotides were transcribed from the DNA templates using T7 RNA polymerase and purified by phenol/chloroform extraction followed by ethanol precipitation. Oligonucleotide concentrations were determined spectroscopically by absorbance at 260 nm. In the first selection round a 1:1:1 molar ratio of NNK10/NNK11/NNK12 was used. The procedure for selection rounds 2-6 is described below; round 1 was conducted at twice the scale.
RNA encoding for the peptide library ligated to a puromycin-modified oligonucleotide was […] (final [RNA] = 2.5 µM) using a customised PURE express kit (lacking release factor 1 and methionine, supplemented with […] initiator tRNA acylated with N-chloroacetyl-d-tyrosine prepared as previously described)^3 in a final volume of 5.6 µL for 1 hour at 37 °C.
This mixture was incubated at 42 °C for 1 hour before being diluted to 500 µL with PBS (10 mM Na-PO4 pH 7.4, 2.7 mM KCl, 137 mM NaCl) and 0.5 µL taken for subsequent use in qPCR. […]

| Sequence | Counts (raw counts for peptide sequence), Seq I | Counts (raw counts for peptide sequence), Seq II | Percentage of the pool, averaged across the two sequencing samples [%] | Percentage of the pool, Seq I [%] | Percentage of the pool, Seq II [%] | Percentage Seq I [%] | Percentage Seq II [%] | Percentage Average [%] | Counts Seq I | Counts Seq II |
| --- | --- | --- | --- | --- | --- | --- | --- | --- | --- | --- |
| CFVGRLTLTST | 65 | 3 | 0.011 | 0.015 | 0.007 |  |  |  |  |  |
| CFVLRRNFEGT | 53 | 5 | 0.012 | 0.012 | 0.012 |  |  |  |  |  |
| CFVNRLGSAESR | 63 | 9 | 0.018 | 0.014 | 0.021 |  |  |  |  |  |
| CFVNRLRSAESR |  |  |  |  |  | 0.141 | 0.144 | 0.143 | 618 | 62 |
| CFVNRLSDSLSL |  |  |  |  |  | 0.048 | 0.070 | 0.059 | 212 | 30 |
| CFVRRLNDLTTT |  |  |  |  |  | 0.121 | 0.137 | 0.129 | 528 | 59 |
| CFVSRTQIGSV | 85 | 2 | 0.012 | 0.019 | 0.00464 |  |  |  |  |  |
| CFYQRTLGTTAS |  |  |  |  |  | 0.018 | 0.021 | 0.019 | 79 | 9 |
| CFYTRIDAFST |  |  |  |  |  | 0.081 | 0.079 | 0.080 | 354 | 34 |
| CHGGRTFIYAWS |  |  |  |  |  | 0.025 | 0.026 | 0.025 | 108 | 11 |
| CIDVYGRMWA |  |  |  |  |  | 0.086 | 0.091 | 0.088 | 375 | 39 |
| CIRGTPTTV | 56 | 3 | 0.010 | 0.013 | 0.007 |  |  |  |  |  |
| CIRGTPTTVWG |  |  |  |  |  | 0.387 | 0.362 | 0.374 | 1692 | 156 |
| CKIDVYGRTWS | 81 | 5 | 0.015 | 0.019 | 0.012 |  |  |  |  |  |
| CLDKWGRLWS |  |  |  |  |  | 0.911 | 0.754 | 0.833 | 3987 | 325 |
| CLDKWGRLWT |  |  |  |  |  | 0.042 | 0.042 | 0.042 | 182 | 18 |
| CLRKTRDILSV | 65 | 6 | 0.014 | 0.015 | 0.014 |  |  |  |  |  |

| Sequence | Counts (raw counts for peptide sequence), Seq I | Counts (raw counts for peptide sequence), Seq II | Percentage of the pool, averaged across the two sequencing samples [%] | Percentage of the pool, Seq I [%] | Percentage of the pool, Seq II [%] | Percentage Seq I [%] | Percentage Seq II [%] | Percentage Average [%] | Counts Seq I | Counts Seq II |
| --- | --- | --- | --- | --- | --- | --- | --- | --- | --- | --- |
| CLRLHREPGSL |  |  |  |  |  | 0.103 | 0.135 | 0.119 | 449 | 58 |
| CLRRHVTASDV |  |  |  |  |  | 0.040 | 0.023 | 0.031 | 174 | 10 |
| CLRRSFLDNAGV | 57 | 7 | 0.015 | 0.013 | 0.016 |  |  |  |  |  |
| CLRRSYEATSI |  |  |  |  |  | 0.020 | 0.021 | 0.021 | 88 | 9 |
| CPQLILRGWQ |  |  |  |  |  | 0.030 | 0.044 | 0.037 | 133 | 19 |
| CPRYVSRGFA | 72 | 5 | 0.014 | 0.016 | 0.012 |  |  |  |  |  |
| CRGNRFYQLSFH |  |  |  |  |  | 0.154 | 0.186 | 0.170 | 674 | 80 |
| CSAGRLTIDAV | 37 | 6 | 0.011 | 0.00846 | 0.014 |  |  |  |  |  |
| CSRLTSRGWT | 62 | 5 | 0.013 | 0.014 | 0.012 |  |  |  |  |  |
| CSSLRARGWI | 75 | 3 | 0.012 | 0.017 | 0.007 |  |  |  |  |  |
| CYAAGSASWSRG | 65 | 6 | 0.014 | 0.015 | 0.014 |  |  |  |  |  |
| CYGDRTFIYAWS | 53 | 10 | 0.018 | 0.012 | 0.023 |  |  |  |  |  |
| CYGGQTFIYAWS |  |  |  |  |  | 0.026 | 0.030 | 0.028 | 114 | 13 |
| CYGGRAFIYAWS |  |  |  |  |  | 0.042 | 0.044 | 0.043 | 185 | 19 |
| CYGGRSFIYAWS | 47 | 6 | 0.012 | 0.011 | 0.014 |  |  |  |  |  |
| CYGGRTFIHAWS |  |  |  |  |  | 0.054 | 0.049 | 0.051 | 237 | 21 |
